Experimental data taken from patent publication EP4640700A1 (Harbour Biomed (Shanghai) Co., Ltd, dated 2025).

Legend:
[1] = biological target: T1, human serum albumin (human, UniProt P02768 25-609); experiment: binding to human serum albumin, Fig. 19; method not described
T1 construct: Bought reagent; also called HSA

[2] = biological target: T2, human B7H4 (human, UniProt Q7Z7D3 25-282); experiment: cell-based or functional assay
T2 sequence (looked up): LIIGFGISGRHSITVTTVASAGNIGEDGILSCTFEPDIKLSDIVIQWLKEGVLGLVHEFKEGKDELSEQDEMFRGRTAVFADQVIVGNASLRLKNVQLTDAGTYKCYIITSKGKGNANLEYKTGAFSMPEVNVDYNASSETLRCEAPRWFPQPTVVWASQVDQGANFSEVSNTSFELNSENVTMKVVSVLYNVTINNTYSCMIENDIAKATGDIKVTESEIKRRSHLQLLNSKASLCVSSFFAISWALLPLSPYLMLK

[3] = biological target: T2, human B7H4; experiment: flow cytometry (FACS) on SK-BR-3 cells with high B7H4 expression
[4] = biological target: PSMA (UniProt Q04609 1-750); experiment: cell-based or functional assay
[5] = biological target: human ROR1 (human, UniProt Q01973 30-937); experiment: cell-based or functional assay
[6] = biological target: T3, BCMA (UniProt Q02223 1-184); experiment: cell-based or functional assay
T3 sequence (looked up): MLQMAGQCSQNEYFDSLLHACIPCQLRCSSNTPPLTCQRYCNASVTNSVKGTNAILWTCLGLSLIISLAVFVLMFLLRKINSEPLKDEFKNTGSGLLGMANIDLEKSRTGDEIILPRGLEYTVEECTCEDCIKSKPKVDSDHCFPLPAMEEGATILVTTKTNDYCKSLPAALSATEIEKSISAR

Sequence of PSMA (Q04609 whole entry): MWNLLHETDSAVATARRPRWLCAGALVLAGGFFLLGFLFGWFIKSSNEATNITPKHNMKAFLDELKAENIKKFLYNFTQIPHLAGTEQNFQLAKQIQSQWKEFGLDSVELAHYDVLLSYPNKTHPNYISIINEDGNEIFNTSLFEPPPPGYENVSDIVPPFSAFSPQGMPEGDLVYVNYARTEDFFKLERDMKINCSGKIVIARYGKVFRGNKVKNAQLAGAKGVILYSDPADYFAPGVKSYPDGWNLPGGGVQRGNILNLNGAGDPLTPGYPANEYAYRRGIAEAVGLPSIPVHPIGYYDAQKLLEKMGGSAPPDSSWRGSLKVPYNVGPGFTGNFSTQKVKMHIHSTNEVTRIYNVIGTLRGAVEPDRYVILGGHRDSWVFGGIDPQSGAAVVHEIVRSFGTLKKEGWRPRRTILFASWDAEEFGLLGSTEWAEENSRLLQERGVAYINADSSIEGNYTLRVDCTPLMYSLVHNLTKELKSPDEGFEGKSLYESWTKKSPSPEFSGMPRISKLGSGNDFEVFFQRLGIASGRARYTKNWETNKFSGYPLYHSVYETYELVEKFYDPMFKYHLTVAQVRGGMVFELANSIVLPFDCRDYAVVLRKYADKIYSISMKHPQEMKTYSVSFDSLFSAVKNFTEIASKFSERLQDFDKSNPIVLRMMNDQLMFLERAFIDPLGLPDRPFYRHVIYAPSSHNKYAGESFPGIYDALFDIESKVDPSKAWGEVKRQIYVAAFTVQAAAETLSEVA
T1 sequence (P02768 25-609 limits assumed): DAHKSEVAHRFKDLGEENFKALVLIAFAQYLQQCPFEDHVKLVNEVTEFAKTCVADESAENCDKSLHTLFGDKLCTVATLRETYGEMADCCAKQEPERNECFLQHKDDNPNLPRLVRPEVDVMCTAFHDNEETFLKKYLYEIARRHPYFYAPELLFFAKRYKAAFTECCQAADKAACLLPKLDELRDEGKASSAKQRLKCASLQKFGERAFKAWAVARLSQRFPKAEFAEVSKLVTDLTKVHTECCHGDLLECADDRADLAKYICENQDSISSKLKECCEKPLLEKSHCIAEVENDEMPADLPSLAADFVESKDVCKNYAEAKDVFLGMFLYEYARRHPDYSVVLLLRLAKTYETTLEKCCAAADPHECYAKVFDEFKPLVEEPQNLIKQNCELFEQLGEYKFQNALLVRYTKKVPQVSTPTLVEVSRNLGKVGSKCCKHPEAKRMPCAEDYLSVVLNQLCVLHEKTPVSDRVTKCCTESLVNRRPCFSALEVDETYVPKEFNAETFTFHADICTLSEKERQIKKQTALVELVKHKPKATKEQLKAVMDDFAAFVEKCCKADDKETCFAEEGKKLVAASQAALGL
Sequence of human ROR1 (Q01973 30-937): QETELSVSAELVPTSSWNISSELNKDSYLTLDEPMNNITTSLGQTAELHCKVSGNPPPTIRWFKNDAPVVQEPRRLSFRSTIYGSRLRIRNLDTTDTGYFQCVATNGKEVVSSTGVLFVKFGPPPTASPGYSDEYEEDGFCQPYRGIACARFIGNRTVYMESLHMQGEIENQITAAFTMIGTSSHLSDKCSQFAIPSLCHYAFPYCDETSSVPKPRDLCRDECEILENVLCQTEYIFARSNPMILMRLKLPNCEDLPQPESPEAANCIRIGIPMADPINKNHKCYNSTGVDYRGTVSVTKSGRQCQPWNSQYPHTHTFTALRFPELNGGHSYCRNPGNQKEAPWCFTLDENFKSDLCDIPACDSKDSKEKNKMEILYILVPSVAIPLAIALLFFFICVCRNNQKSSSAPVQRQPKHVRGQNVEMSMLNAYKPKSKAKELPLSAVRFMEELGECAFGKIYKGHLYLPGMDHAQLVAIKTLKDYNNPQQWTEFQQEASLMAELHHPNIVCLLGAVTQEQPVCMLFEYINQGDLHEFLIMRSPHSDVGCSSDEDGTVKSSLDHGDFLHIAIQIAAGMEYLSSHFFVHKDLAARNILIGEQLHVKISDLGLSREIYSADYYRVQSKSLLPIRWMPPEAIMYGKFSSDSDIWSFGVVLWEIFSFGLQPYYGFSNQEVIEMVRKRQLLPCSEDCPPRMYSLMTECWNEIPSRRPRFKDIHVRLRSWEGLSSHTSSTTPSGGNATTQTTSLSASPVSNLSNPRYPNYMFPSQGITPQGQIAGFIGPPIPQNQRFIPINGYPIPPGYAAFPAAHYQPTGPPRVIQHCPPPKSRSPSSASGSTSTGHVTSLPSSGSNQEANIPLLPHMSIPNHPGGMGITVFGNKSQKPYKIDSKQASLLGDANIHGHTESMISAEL

B1: PR000929 (VHH)
VHH: EVQLLESGGGLVQPGGSLRLSCAASGFTFRSFGMSWVRQAPGKGPEWVSSISGSGSDTLYADSVKGRFTISRDNSKNTLYLQMNSLRPEDTAVYYCTIGGSLSRSSQGTLVTVSS
notes: Humanized single-domain antibody, no Fc; also called anti-HSA Alb23-his; single-domain antibody Alb23
[1]
  binding result: binds

B2: PR000317 (bispecific antibody)
chain 1: EVQLVQSGAEVKKPGASVKVSCKASGYTFTSYWIGWVRQAPGQGLEWIGDIYPGGGYTNYNEKFKGRVTITRDTSTSTAYLELSSLRSEDTAVYYCARLAGSSYRGAMDSWGQGTLVTVSSASTKGPSVFPLAPSSKSTSGGTAALGCLVKDYFPEPVTVSWNSGALTSGVHTFPAVLQSSGLYSLSSVVTVPSSSLGTQTYICNVNHKPSNTKVDKKVEPKSC
chain 2: DIQMTQSPSSLSASVGDRVTITCKASQGFNKYVAWYQQKPGKAPKLLIYYTSTLQPGVPSRFSGSGSGRDYTLTISSLQPEDFATYYCLQYGDLLYAFGQGTKVEIKRTVAAPSVFIFPPSDEQLKSGTASVVCLLNNFYPREAKVQWKVDNALQSGNSQESVTEQDSKDSTYSLSSTLTLSKADYEKHKVYACEVTHQGLSSPVTKSFNRGECEVQLVESGGGLVQPKGSLKLSCAASGFTFNTYAMNWVRQAPGKGLEWVARIRSKYNNYATYYADSVKDRFTISRDDSQSILYLQMNNLKTEDTAMYYCVRHGNFGNSYVSWFAYWGQGTLVTVSAASTKGPSVFPLAPSSKSTSGGTAALGCLVKDYFPEPVTVSWNSGALTSGVHTFPAVLQSSGLYSLSSVVTVPSSSLGTQTYICNVNHKPSNTKVDKKVEPKSC
light: QAVVTQESALTTSPGETVTLTCRSSTGAVTTSNYANWVQEKPDHLFTGLIGGTNKRAPGVPARFSGSLIGDKAALTITGAQTEDEAIYFCALWYSNLWVFGGGTKLTVLGQPKAAPSVTLFPPSSEELQANKATLVCLISDFYPGAVTVAWKADSSPVKAGVETTTPSKQSNNKYAASSYLSLTPEQWKSHRSYSCQVTHEGSTVEKTVAPTECS
notes: Three-chain Fab-Fab without Fc; N-terminal Fab-A from PR000157 (anti-B7H4), C-terminal Fab-B from PR000260 (anti-CD3 SP34); also called Anti-B7H4xCD3 1D11-SP34 Fab-Fab; B7H4xCD3 "κ/λ" Fab-Fab antibody
[2]
  Cell killing EC50: 0.0018 nM
  Maximum killing rate (%): 33.9%
[3]
  EC50: 22 nM

B3: PR001325 (bispecific antibody)
chain 1: EVQLVQSGAEVKKPGASVKVSCKASGYTFTSYWIGWVRQAPGQGLEWIGDIYPGGGYTNYNEKFKGRVTITRDTSTSTAYLELSSLRSEDTAVYYCARLAGSSYRGAMDSWGQGTLVTVSSASTKGPSVFPLAPSSKSTSGGTAALGCLVKDYFPEPVTVSWNSGALTSGVHTFPAVLQSSGLYSLSSVVTVPSSSLGTQTYICNVNHKPSNTKVDKKVEPKSC
chain 2: DIQMTQSPSSLSASVGDRVTITCKASQGFNKYVAWYQQKPGKAPKLLIYYTSTLQPGVPSRFSGSGSGRDYTLTISSLQPEDFATYYCLQYGDLLYAFGQGTKVEIKRTVAAPSVFIFPPSDEQLKSGTASVVCLLNNFYPREAKVQWKVDNALQSGNSQESVTEQDSKDSTYSLSSTLTLSKADYEKHKVYACEVTHQGLSSPVTKSFNRGECEVQLVESGGGLVQPGGSLKLSCAASGFTFNTYAMNWVRQASGKGLEWVGRIRSKYNNYATYYADSVKDRFTISRDDSKSTLYLQMNSLKTEDTAVYYCVRHGNFGNSYVSWFAYWGQGTLVTVSSASTKGPSVFPLAPSSKSTSGGTAALGCLVKDYFPEPVTVSWNSGALTSGVHTFPAVLQSSGLYSLSSVVTVPSSSLGTQTYICNVNHKPSNTKVDKKVEPKSCGGGGSGGGGSEVQLLESGGGLVQPGGSLRLSCAASGFTFRSFGMSWVRQAPGKGPEWVSSISGSGSDTLYADSVKGRFTISRDNSKNTLYLQMNSLRPEDTAVYYCTIGGSLSRSSQGTLVTVSS
light: QAVVTQEPSLTVSPGGTVTLTCRSSTGAVTTSNYANWVQQKPGQAPRGLIGGTNKRAPWTPARFSGSLLGDKAALTLLGAQPEDEAEYFCALWYSNLWVFGGGTKLTVLGQPKAAPSVTLFPPSSEELQANKATLVCLISDFYPGAVTVAWKADSSPVKAGVETTTPSKQSNNKYAASSYLSLTPEQWKSHRSYSCQVTHEGSTVEKTVAPTECS
notes: no Fc; also called anti-B7H4xCD3 1D11C2-hzSP34_PR512 Fab-Fab-(G4S)2-Alb23; B7H4xCD3xALB trispecific antibody
[1]
  binding result: binds

B4: PR001197 (bispecific antibody)
chain 1: QVQLVESGGGLVKPGESLRLSCAASGFTFSDYYMYWVRQAPGKGLEWVAIISDGGYYTYYSDIIKGRFTISRDNAKNSLYLQMNSLKAEDTAVYYCARGFPLLRHGAMDYWGQGTLVTVSSASTKGPSVFPLAPSSKSTSGGTAALGCLVKDYFPEPVTVSWNSGALTSGVHTFPAVLQSSGLYSLSSVVTVPSSSLGTQTYICNVNHKPSNTKVDKKVEPKSC
chain 2: DIQMTQSPSSLSASVGDRVTITCKASQNVDTNVAWYQQKPGQAPKSLIYSASYRYSDVPSRFSGSASGTDFTLTISSVQSEDFATYYCQQYDSYPYTFGGGTKLEIKRTVAAPSVFIFPPSDEQLKSGTASVVCLLNNFYPREAKVQWKVDNALQSGNSQESVTEQDSKDSTYSLSSTLTLSKADYEKHKVYACEVTHQGLSSPVTKSFNRGECEVQLVESGGGLVQPGGSLKLSCAASGFTFNTYAMNWVRQASGKGLEWVGRIRSKYNNYATYYADSVKDRFTISRDDSKSTLYLQMNSLKTEDTAVYYCVRHGNFGNSYVSWFAYWGQGTLVTVSSASTKGPSVFPLAPSSKSTSGGTAALGCLVKDYFPEPVTVSWNSGALTSGVHTFPAVLQSSGLYSLSSVVTVPSSSLGTQTYICNVNHKPSNTKVDKKVEPKSC
light: QAVVTQEPSLTVSPGGTVTLTCRSSTGAVTTSNYANWVQQKPGQAPRGLIGGTNKRAPWTPARFSGSLLGDKAALTLLGAQPEDEAEYFCALWYSNLWVFGGGTKLTVLGQPKAAPSVTLFPPSSEELQANKATLVCLISDFYPGAVTVAWKADSSPVKAGVETTTPSKQSNNKYAASSYLSLTPEQWKSHRSYSCQVTHEGSTVEKTVAPTECS
[4]
  Cell killing EC50: 0.143 nM
  Maximum killing rate (%): 52.4%

B5: PR001200 (bispecific antibody)
chain 1: EVQLVESGGGLVQPGRSLRLSCTASGSDINDYPITWVRQAPGQGLEWIGFINSGGSTWYASWVKGRFTISRDDSKSIAYLQMNSLKTEDTAVYYCARGYSTYYRDFNIWGQGTLVTVSSASTKGPSVFPLAPSSKSTSGGTAALGCLVKDYFPEPVTVSWNSGALTSGVHTFPAVLQSSGLYSLSSVVTVPSSSLGTQTYICNVNHKPSNTKVDKKVEPKSC
chain 2: DIQMTQSPSSLSASVGDRVTINCQASQSIDSNLAWFQQKPGQPPKLLIYRASNLASGVPDRFSGSGSGTDFTLTISSLEAEDVATYYCLGGVGAVSYRTSFGGGTKVEIKRTVAAPSVFIFPPSDEQLKSGTASVVCLLNNFYPREAKVQWKVDNALQSGNSQESVTEQDSKDSTYSLSSTLTLSKADYEKHKVYACEVTHQGLSSPVTKSFNRGECEVQLVESGGGLVQPGGSLKLSCAASGFTFNTYAMNWVRQASGKGLEWVGRIRSKYNNYATYYADSVKDRFTISRDDSKSTLYLQMNSLKTEDTAVYYCVRHGNFGNSYVSWFAYWGQGTLVTVSSASTKGPSVFPLAPSSKSTSGGTAALGCLVKDYFPEPVTVSWNSGALTSGVHTFPAVLQSSGLYSLSSVVTVPSSSLGTQTYICNVNHKPSNTKVDKKVEPKSC
light: QAVVTQEPSLTVSPGGTVTLTCRSSTGAVTTSNYANWVQQKPGQAPRGLIGGTNKRAPWTPARFSGSLLGDKAALTLLGAQPEDEAEYFCALWYSNLWVFGGGTKLTVLGQPKAAPSVTLFPPSSEELQANKATLVCLISDFYPGAVTVAWKADSSPVKAGVETTTPSKQSNNKYAASSYLSLTPEQWKSHRSYSCQVTHEGSTVEKTVAPTECS
[5]
  Cell killing EC50: 1.16 nM
  Maximum killing rate (%): 54.8%

B6: PR001198 (bispecific antibody)
chain 1: QVQLVQSGAEVKKPGSSVKVSCKASGGTFSNYWMHWVRQAPGQGLEWMGATYRGHSDTYYNQKFKGRVTITADKSTSTAYMELSSLRSEDTAVYYCARGAIYDGYDVLDNWGQGTLVTVSSASTKGPSVFPLAPSSKSTSGGTAALGCLVKDYFPEPVTVSWNSGALTSGVHTFPAVLQSSGLYSLSSVVTVPSSSLGTQTYICNVNHKPSNTKVDKKVEPKSC
chain 2: not shown
light: QAVVTQEPSLTVSPGGTVTLTCRSSTGAVTTSNYANWVQQKPGQAPRGLIGGTNKRAPWTPARFSGSLLGDKAALTLLGAQPEDEAEYFCALWYSNLWVFGGGTKLTVLGQPKAAPSVTLFPPSSEELQANKATLVCLISDFYPGAVTVAWKADSSPVKAGVETTTPSKQSNNKYAASSYLSLTPEQWKSHRSYSCQVTHEGSTVEKTVAPTECS
[6]
  Cell killing EC50: 0.0178 nM
  Maximum killing rate (%): 61.3%
